Results as given in patent publication US20150203577A1 (Chugai, published 2015).

T1: mouse FcγRII (mouse, UniProt P08101 30-210)
T1 construct: Extracellular domain with C-terminal His tag, made in FreeStyle 293 cells; also called mFcγRII; mFcgRII
T1 sequence: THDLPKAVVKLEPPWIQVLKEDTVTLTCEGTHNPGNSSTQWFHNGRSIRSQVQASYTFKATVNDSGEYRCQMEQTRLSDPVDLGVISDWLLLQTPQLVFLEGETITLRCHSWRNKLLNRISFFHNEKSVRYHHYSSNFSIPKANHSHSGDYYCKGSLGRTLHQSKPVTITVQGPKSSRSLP

T2: mouse FcγRIII (mouse, UniProt P08508 31-215)
T2 construct: Extracellular domain with C-terminal His tag, made in FreeStyle 293 cells; also called mFcγRIII; mFcgRIII
T2 chain: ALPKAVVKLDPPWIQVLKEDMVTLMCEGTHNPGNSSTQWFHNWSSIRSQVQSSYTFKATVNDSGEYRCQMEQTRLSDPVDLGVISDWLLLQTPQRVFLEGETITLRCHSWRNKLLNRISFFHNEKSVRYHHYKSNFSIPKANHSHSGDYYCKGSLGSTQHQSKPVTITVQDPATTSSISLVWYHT


Legend:
mouse FcγRII [1] = biological target: T1, mouse FcγRII; assay: SPR (Biacore), antibody captured on Protein L
Protocol: (§1) Each altered antibody was analyzed for its interaction with each Fcγ receptor prepared above using Biacore T100 (GE Healthcare Japan Corp.), Biacore T200 (GE Healthcare Japan Corp.), Biacore A100, or Biacore 4000. The running buffer used was HBS-EP+ (GE Healthcare Japan Corp.). The assay temperature was set to 25° C. The sensor chips used were chips prepared by immobilizing Protein L (ACTIGEN or BioVision) onto Series S Sensor Chip CM5 (GE Healthcare Japan Corp.) or Series S Sensor Chip CM4 (GE Healthcare Japan Corp.) by the amine coupling method.
(§2) In order to calculate the KD value of each altered antibody for FcγR, kinetic analysis was conducted according to the following method: first, the antibody of interest was captured onto any of these chips and allowed to interact with mFcγR diluted with a running buffer. For the obtained sensorgram, the assay results were globally fit into the 1:1 Langmuir binding model using Biacore Evaluation Software to calculate an association rate constant ka (L/mol/s) and a dissociation rate constant kd (1/s). From these values, the dissociation constant KD (mol/L) was calculated.

mouse FcγRIII [2] = biological target: T2, mouse FcγRIII; assay: SPR (Biacore), antibody captured on Protein L
Protocol: as §1, §2

mouse FcγRII [3] = biological target: T1, mouse FcγRII; assay: SPR (Biacore), KD of H237-mIgG1/MRAL-k0 (same run) / KD of variant
Protocol: as §1, §2

mouse FcγRIII [4] = biological target: T2, mouse FcγRIII; assay: as above
Protocol: as §1, §2

| Binder | Kd (mouse FcγRII [1]) | Kd (mouse FcγRIII [2]) | relative mFcγRII-binding activity (mIgG1 = 1) (mouse FcγRII [3]) | relative mFcγRIII-binding activity (mIgG1 = 1) (mouse FcγRIII [4]) |
| --- | --- | --- | --- | --- |
| H237-MB694/MRAL-k0 (antibody, mouse IgG1, kappa, copies: 2 + 2) heavy: QVQLQESGPGLVKPSETLSLTCAVSGHSISHDHAWSWVRQPPGEGLEWIGFISYSGITNYNPSLQGRVTISRDNSKNTLYLQMNSLRAEDTAVYYCARSLARTTAMDYWGEGTLVTVSSAKTTPPSVYPLAPGSAAQTNSMVTLGCLVKGYFPEPVTVTWNSGSLSSGVHTFPAVLQSDLYTLSSSVTVPSSTWPSETVTCNVAHPASSTKVDKKIVPRDCGCKPCICEDPEVEYVFIFPPKPKDVLTITLTPKVTCVVVDISKDDPEVQFSWFVDDVEVHTAQTQPREEQFNSTFRSVSELPIMHQDWLNGKEFKCRVNSAAFPAPIEKTISKTKGRPKAPQVYTIPPPKEQMAKDKVSLTCMITDFFPEDITVEWQWNGQPAENYKNTQPIMDTDGSYFVYSKLNVQKSNWEAGNTFTCSVLHEGLHNHHTEKSLSHSPGK light: not shown | 598 nM | 16400 nM | 0.54 fold | 0.03 fold |
| H237-MB700/MRAL-k0 (antibody, mouse IgG1, kappa, copies: 2 + 2) heavy: QVQLQESGPGLVKPSETLSLTCAVSGHSISHDHAWSWVRQPPGEGLEWIGFISYSGITNYNPSLQGRVTISRDNSKNTLYLQMNSLRAEDTAVYYCARSLARTTAMDYWGEGTLVTVSSAKTTPPSVYPLAPGSAAQTNSMVTLGCLVKGYFPEPVTVTWNSGSLSSGVHTFPAVLQSDLYTLSSSVTVPSSTWPSETVTCNVAHPASSTKVDKKIVPRDCGCKPCICEVPEEEYVFIFPPKPKDVLTITLTPKVTCVVVDISKDDPEVQFSWFVDDVEVHTAQTQPREEQFNSTFRSVSELPIMHQDWLNGKEFKCRVNSAAFPAPIEKTISKTKGRPKAPQVYTIPPPKEQMAKDKVSLTCMITDFFPEDITVEWQWNGQPAENYKNTQPIMDTDGSYFVYSKLNVQKSNWEAGNTFTCSVLHEGLHNHHTEKSLSHSPGK light: not shown | 582 nM | 11600 nM | 0.56 fold | 0.04 fold |
| H237-MB702/MRAL-k0 (antibody, mouse IgG1, kappa, copies: 2 + 2) heavy: QVQLQESGPGLVKPSETLSLTCAVSGHSISHDHAWSWVRQPPGEGLEWIGFISYSGITNYNPSLQGRVTISRDNSKNTLYLQMNSLRAEDTAVYYCARSLARTTAMDYWGEGTLVTVSSAKTTPPSVYPLAPGSAAQTNSMVTLGCLVKGYFPEPVTVTWNSGSLSSGVHTFPAVLQSDLYTLSSSVTVPSSTWPSETVTCNVAHPASSTKVDKKIVPRDCGCKPCICTAYEVENVFIFPPKPKDVLTITLTPKVTCVVVDISKDDPEVQFSWFVDDVEVHTAQTQPREEQFNSTFRSVSELPIMHQDWLNGKEFKCRVNSAAFPAPIEKTISKTKGRPKAPQVYTIPPPKEQMAKDKVSLTCMITDFFPEDITVEWQWNGQPAENYKNTQPIMDTDGSYFVYSKLNVQKSNWEAGNTFTCSVLHEGLHNHHTEKSLSHSPGK light: not shown | 339 nM | 3520 nM | 0.96 fold | 0.14 fold |
| H237-MB703/MRAL-k0 (antibody, mouse IgG1, kappa, copies: 2 + 2) heavy: QVQLQESGPGLVKPSETLSLTCAVSGHSISHDHAWSWVRQPPGEGLEWIGFISYSGITNYNPSLQGRVTISRDNSKNTLYLQMNSLRAEDTAVYYCARSLARTTAMDYWGEGTLVTVSSAKTTPPSVYPLAPGSAAQTNSMVTLGCLVKGYFPEPVTVTWNSGSLSSGVHTFPAVLQSDLYTLSSSVTVPSSTWPSETVTCNVAHPASSTKVDKKIVPRDCGCKPCICEAPEVENVFIFPPKPKDVLTITLTPKVTCVVVDISKDDPEVQFSWFVDDVEVHTAQTQPREEQFNSTFRSVSELPIMHQDWLNGKEFKCRVNSAAFPAPIEKTISKTKGRPKAPQVYTIPPPKEQMAKDKVSLTCMITDFFPEDITVEWQWNGQPAENYKNTQPIMDTDGSYFVYSKLNVQKSNWEAGNTFTCSVLHEGLHNHHTEKSLSHSPGK light: not shown | 345 nM | 4900 nM | 0.94 fold | 0.1 fold |
| H237-MB709/MRAL-k0 (antibody, mouse IgG1, kappa, copies: 2 + 2) heavy: QVQLQESGPGLVKPSETLSLTCAVSGHSISHDHAWSWVRQPPGEGLEWIGFISYSGITNYNPSLQGRVTISRDNSKNTLYLQMNSLRAEDTAVYYCARSLARTTAMDYWGEGTLVTVSSAKTTPPSVYPLAPGSAAQTNSMVTLGCLVKGYFPEPVTVTWNSGSLSSGVHTFPAVLQSDLYTLSSSVTVPSSTWPSETVTCNVAHPASSTKVDKKIVPRDCGCKPCICEPAEVETVFIFPPKPKDVLTITLTPKVTCVVVDISKDDPEVQFSWFVDDVEVHTAQTQPREEQFNSTFRSVSELPIMHQDWLNGKEFKCRVNSAAFPAPIEKTISKTKGRPKAPQVYTIPPPKEQMAKDKVSLTCMITDFFPEDITVEWQWNGQPAENYKNTQPIMDTDGSYFVYSKLNVQKSNWEAGNTFTCSVLHEGLHNHHTEKSLSHSPGK light: not shown | 345 nM | 7690 nM | 0.78 fold | 0.06 fold |
| H237-MB715/MRAL-k0 (antibody, mouse IgG1, kappa, copies: 2 + 2) heavy: QVQLQESGPGLVKPSETLSLTCAVSGHSISHDHAWSWVRQPPGEGLEWIGFISYSGITNYNPSLQGRVTISRDNSKNTLYLQMNSLRAEDTAVYYCARSLARTTAMDYWGEGTLVTVSSAKTTPPSVYPLAPGSAAQTNSMVTLGCLVKGYFPEPVTVTWNSGSLSSGVHTFPAVLQSDLYTLSSSVTVPSSTWPSETVTCNVAHPASSTKVDKKIVPRDCGCKPCICEPNEVEVVFIFPPKPKDVLTITLTPKVTCVVVDISKDDPEVQFSWFVDDVEVHTAQTQPREEQFNSTFRSVSELPIMHQDWLNGKEFKCRVNSAAFPAPIEKTISKTKGRPKAPQVYTIPPPKEQMAKDKVSLTCMITDFFPEDITVEWQWNGQPAENYKNTQPIMDTDGSYFVYSKLNVQKSNWEAGNTFTCSVLHEGLHNHHTEKSLSHSPGK light: not shown | 236 nM | 11900 nM | 1.14 fold | 0.04 fold |
| H237-MB717/MRAL-k0 (antibody, mouse IgG1, kappa, copies: 2 + 2) heavy: QVQLQESGPGLVKPSETLSLTCAVSGHSISHDHAWSWVRQPPGEGLEWIGFISYSGITNYNPSLQGRVTISRDNSKNTLYLQMNSLRAEDTAVYYCARSLARTTAMDYWGEGTLVTVSSAKTTPPSVYPLAPGSAAQTNSMVTLGCLVKGYFPEPVTVTWNSGSLSSGVHTFPAVLQSDLYTLSSSVTVPSSTWPSETVTCNVAHPASSTKVDKKIVPRDCGCKPCICEPNEVEPVFIFPPKPKDVLTITLTPKVTCVVVDISKDDPEVQFSWFVDDVEVHTAQTQPREEQFNSTFRSVSELPIMHQDWLNGKEFKCRVNSAAFPAPIEKTISKTKGRPKAPQVYTIPPPKEQMAKDKVSLTCMITDFFPEDITVEWQWNGQPAENYKNTQPIMDTDGSYFVYSKLNVQKSNWEAGNTFTCSVLHEGLHNHHTEKSLSHSPGK light: not shown | 514 nM | 8620 nM | 0.52 fold | 0.05 fold |
| H237-MB718/MRAL-k0 (antibody, mouse IgG1, kappa, copies: 2 + 2) heavy: QVQLQESGPGLVKPSETLSLTCAVSGHSISHDHAWSWVRQPPGEGLEWIGFISYSGITNYNPSLQGRVTISRDNSKNTLYLQMNSLRAEDTAVYYCARSLARTTAMDYWGEGTLVTVSSAKTTPPSVYPLAPGSAAQTNSMVTLGCLVKGYFPEPVTVTWNSGSLSSGVHTFPAVLQSDLYTLSSSVTVPSSTWPSETVTCNVAHPASSTKVDKKIVPRDCGCKPCICEPNEVETVFIFPPKPKDVLTITLTPKVTCVVVDISKDDPEVQFSWFVDDVEVHTAQTQPREEQFNSTFRSVSELPIMHQDWLNGKEFKCRVNSAAFPAPIEKTISKTKGRPKAPQVYTIPPPKEQMAKDKVSLTCMITDFFPEDITVEWQWNGQPAENYKNTQPIMDTDGSYFVYSKLNVQKSNWEAGNTFTCSVLHEGLHNHHTEKSLSHSPGK light: not shown | 247 nM | 5560 nM | 1.08 fold | 0.08 fold |
| H237-MB731/MRAL-k0 (antibody, mouse IgG1, kappa, copies: 2 + 2) heavy: QVQLQESGPGLVKPSETLSLTCAVSGHSISHDHAWSWVRQPPGEGLEWIGFISYSGITNYNPSLQGRVTISRDNSKNTLYLQMNSLRAEDTAVYYCARSLARTTAMDYWGEGTLVTVSSAKTTPPSVYPLAPGSAAQTNSMVTLGCLVKGYFPEPVTVTWNSGSLSSGVHTFPAVLQSDLYTLSSSVTVPSSTWPSETVTCNVAHPASSTKVDKKIVPRDCGCKPCICEPAEEELVFIFPPKPKDVLTITLTPKVTCVVVDISKDDPEVQFSWFVDDVEVHTAQTQPREEQFNSTFRSVSELPIMHQDWLNGKEFKCRVNSAAFPAPIEKTISKTKGRPKAPQVYTIPPPKEQMAKDKVSLTCMITDFFPEDITVEWQWNGQPAENYKNTQPIMDTDGSYFVYSKLNVQKSNWEAGNTFTCSVLHEGLHNHHTEKSLSHSPGK light: not shown | 238 nM | 15300 nM | 1.13 fold | 0.03 fold |
